Measured values published in the Human Domainome abundance scans (Beltran et al. 2025).
± gives the uncertainty stated by the source.

B1: RUN and FYVE domain-containing protein 1, residues 639 to 698; numbered along this chain, Q96T51 (parent)
chain: WLKDDEATHCRQCEKEFSISRRKHHCRNCGHIFCNTCSSNELALPSYPKPVRVCDSCHTL

Variants of: B1
Assay: abundance fitness (aPCA) (normalised: wild type 0, dead -1); higher = more abundant; growth selection in yeast, the domain comes from the species named
Details: Homo sapiens

Variant | abundance fitness
A7Y | -0.092 ± 0.048
E6Q | -0.203 ± 0.048
L44V | -0.236 ± 0.057
H31W | -0.017 ± 0.047
K3A | -0.602 ± 0.066
L44M | -0.077 ± 0.064
K49C | -0.133 ± 0.085
D5L | -0.547 ± 0.047
T8L | -0.009 ± 0.032
H24D | -0.251 ± 0.071
H58G | -0.203 ± 0.039
K49R | 0.016 ± 0.035
H9W | -0.532 ± 0.057
I32S | 0.013 ± 0.043
D4S | -0.158 ± 0.044
N40P | -0.387 ± 0.059
I19E | 0.228 ± 0.067
R22C | -0.494 ± 0.071
L42G | -0.026 ± 0.041
N40A | -0.163 ± 0.041
N40C | -0.933 ± 0.14
L44E | -0.376 ± 0.089
C29Q | -1.23 ± 0.18
F17M | -0.571 ± 0.074

Variant | abundance fitness
P50H | -0.347 ± 0.092
E41Q | -0.056 ± 0.06
S46C | -0.133 ± 0.086
F17N | -1.02 ± 0.2
N28P | -0.244 ± 0.069
P50I | -0.807 ± 0.17
C57D | -0.619 ± 0.057
H9S | -0.115 ± 0.036
I32Q | 0.045 ± 0.045
K23W | -0.243 ± 0.043
G30D | -0.414 ± 0.099
I32N | -0.05 ± 0.1
P50G | -0.118 ± 0.047
H58E | -0.062 ± 0.052
S18Q | -0.256 ± 0.075
S39Y | -0.428 ± 0.069
K49I | -0.32 ± 0.067
E16A | -0.286 ± 0.04
E16D | -0.123 ± 0.074
N28K | -0.202 ± 0.066
Q12R | -0.303 ± 0.051
N28R | -0.176 ± 0.034
L42D | 0.184 ± 0.057
P45C | -0.325 ± 0.085

Variant | abundance fitness
K15N | -0.058 ± 0.066
K15P | -0.999 ± 0.095
H24P | -0.97 ± 0.091
R22L | -0.098 ± 0.031
A7I | -0.008 ± 0.05
H31L | -0.012 ± 0.035
D5I | -0.341 ± 0.11
Q12L | -0.298 ± 0.039
I19A | -0.177 ± 0.048
S56Y | 0.188 ± 0.056
D5C | -0.17 ± 0.069
S39P | -0.251 ± 0.061
D4T | -0.27 ± 0.05
Y47Q | -0.14 ± 0.063
S38D | -0.665 ± 0.085
C29S | -1.01 ± 0.1
S56G | 0.3 ± 0.049
I19F | -0.136 ± 0.046
I32K | 0.134 ± 0.048
R22P | -0.303 ± 0.054
C37M | -0.567 ± 0.064
H25R | 0.151 ± 0.044
L44Y | -0.271 ± 0.062
R22S | -0.32 ± 0.04

Variant | abundance fitness
E16W | -0.638 ± 0.064
L42Q | 0.295 ± 0.052
S38Q | -0.432 ± 0.13
C37A | -0.326 ± 0.069
S56A | 0.21 ± 0.032
L60Y | -0.422 ± 0.17
N28Y | -0.283 ± 0.065
N28Q | -0.147 ± 0.054
D5V | -0.313 ± 0.047
H25T | -0.118 ± 0.055
R22V | 0 ± 0.034
K15E | -0.009 ± 0.049
H31M | -0.113 ± 0.047
I32P | 0.109 ± 0.053
E16C | -0.29 ± 0.043
N35K | 0.183 ± 0.057
C29D | -0.709 ± 0.11
L2H | -0.211 ± 0.095
S39W | -0.657 ± 0.079
C34D | -0.577 ± 0.075
H31E | -0.277 ± 0.07
H58V | 0.037 ± 0.054
E6M | -0.316 ± 0.052
G30S | -0.503 ± 0.045

Variant | abundance fitness
I19W | -0.846 ± 0.14
K23G | -0.034 ± 0.044
R11M | 0.226 ± 0.044
Q12G | 0.208 ± 0.034
K3E | -0.475 ± 0.061
S56M | 0.165 ± 0.053
S46N | 0.252 ± 0.075
A7Q | 0.04 ± 0.058
S20C | -0.369 ± 0.059
I32T | 0.007 ± 0.065
L60C | -0.625 ± 0.088
H9N | -0.046 ± 0.062
P48I | -0.419 ± 0.059
S18A | -0.33 ± 0.037
V51A | -0.047 ± 0.08
C37H | -0.325 ± 0.12
C34H | -0.44 ± 0.08
Q12Y | -0.279 ± 0.082
G30Y | -0.56 ± 0.1
F17T | -0.574 ± 0.063
R11D | 0.057 ± 0.066
I19P | -0.034 ± 0.045
T36W | 0.168 ± 0.041
P50A | 0.05 ± 0.056

Variant | abundance fitness
E6P | -0.236 ± 0.075
H31T | -0.423 ± 0.076
L42F | 0.034 ± 0.066
C57I | -0.88 ± 0.12
P45L | -0.19 ± 0.042
N40L | -0.424 ± 0.046
S56W | 0.033 ± 0.061
Y47W | -0.382 ± 0.053
R27G | 0.153 ± 0.041
G30N | -1.04 ± 0.17
R27S | -0.003 ± 0.039
L60T | -0.087 ± 0.066
S18T | 0.05 ± 0.047
A43M | 0.021 ± 0.054
D4F | -0.234 ± 0.058
E6W | -0.388 ± 0.058
A7P | -0.114 ± 0.053
F17Q | -0.765 ± 0.084
A43Q | -0.008 ± 0.079
W1C | 0.094 ± 0.075
D4L | -0.298 ± 0.039
A7W | -0.154 ± 0.041
S39Q | 0.091 ± 0.051
S38I | -0.38 ± 0.056

Variant | abundance fitness
N28H | 0.05 ± 0.064
L60Q | 0.101 ± 0.086
S18V | -0.247 ± 0.033
C34Q | -0.542 ± 0.074
C13L | -0.913 ± 0.058
T59Q | 0.328 ± 0.076
R21I | -0.227 ± 0.07
S56I | 0.136 ± 0.073
N35F | -0.064 ± 0.059
L2I | -0.104 ± 0.1
D4E | -0.156 ± 0.059
C34M | -0.398 ± 0.057
H24Q | -0.293 ± 0.062
I19S | -0.048 ± 0.035
N35A | 0.341 ± 0.037
R21H | -0.434 ± 0.079
K15D | -0.233 ± 0.075
R11P | -0.03 ± 0.053
I19R | -0.065 ± 0.045
A7S | 0.092 ± 0.033
L42T | -0.071 ± 0.046
L2T | -0.02 ± 0.066
C29Y | -0.852 ± 0.097
